Measured values taken from patent US20220290147A1, “SYSTEM FOR REGULATING GENE EXPRESSION” (Baylor College of Medicine, priority 2019, published 2022).

Experiments:
[1] = system: 293T cells; assay: Luciferase assay: tetracycline-induced transgene expression (induction in fold) from polyA aptamer constructs; type: cell-based, human
Description: Cells were seeded in 96-well plates at a density of 25000-30000 cells/well. After 24 hours of incubation, each well was transfected with 50 ng of DNA vectors and were incubated with culture medium containing none or various concentration of tetracycline for an additional 18 hours. Luciferase activity was measured in relative light units (RLU) with a Polarstar Omega plate reader (BMG Labtech, USA). To make 36 mL of assay buffer, 144 μL 1M DTT, 108 μL M ATP, 252 μL 0.1M luciferin and 360 μl 0.05M CoA were added to 35 mL of basic buffer (25 mM Tricine, 0.5 mM EDTA-Na2, 0.54 mM Na-triphosphate, 16.3 mM MgSO4.7H2O, and 0.8% Triton X-100). After the cell medium was removed, 40 μL of assay buffer was added to each well, and luciferase activity was read twice with the Polarstar Omega plate reader. Induction in fold is calculated as the ratio of transgene expression in the presence vs absence of tetracycline.

[2] = system: alternative splicing; assay: RT-PCR of tetracycline-induced alternative splicing; type: cell-based; details: presence of Tc, compared to Y196CAA-2MAZ
Description: Cells transfected with the respective constructs were grown 18 hours at 37° C. in medium in the absence or presence of tetracycline. Total RNA was isolated according to the protocol supplied with RiboPure™ RNA Purification Kit (Ambion, Austin, Tex.). For RT-PCR, RT was performed using SuperScript III (invitrogen, Carlsbad, Calif.) according to manufacturer's protocol and PCR was performed using the primers targeting the beginning of the transcript and reporter gene.

Molecule	effect on induction of inserting CAA repeats in the 5′UTR of the named construct [1]	Tc-induced alternative splicing [2]
Y209: SEQ ID NO: 8; polyA switch construct (nucleic acid) DNA: TCAGATCGCCTGGAGACGCCATCCACGCTGTTTTGACCTCCATAGAAGACACCGGGACCGATCCAGCCTCCCCTCGAAGCTGATCCTGAGAACTTCAGGGTGAGTCTATGGGACCCTTGATGTTTTCTTTCCCCTTCTTTTCTATGGTTAAGTTCATGTCATAGGAAGGGGAGAAGTAACAGGGTACACATATTGACCAAATCAGGGTAATTTTGCATTTGTAATTTTAAAAAATGCTTTCTTCTTTTAATATACTTTTTTGTTTATCTTATTTCTAATACTTTCCCTAATCTCTTTCTTTCAGGGCAATAATGATACAATGTATCATGCCTCTTTGCACCATTCTAAAGAATAACAGTGATAATTTCTGGGTTAAGGCAATAGCAATATTTCTGCATATAAATATTTCTGCATATAAATTGTAACTGATGTAAGAGGTTTCATATTGCTAATAGCAGCTACAATCCAGCTACCATTCTGCTTTTATTTTATGGTTGGGATAAGGCTGGATTATTCTGAGTCCAAGCTAGGCCCTTTTGCTAATCATGTTCATACCTCTTATCTTCCTCCCACAGCTCCTGGGCAACGTGCTGGTCTGTGTGCTGGCCCATCACTTTGGCAAAGAATTGGCTAGCCACACACACAAATCTGGGGAGGTGAAGAATACGACCACCTGCGTTTTATACTTCCGCGAGATCTGGGGAGGTGAAGAATACGACCACCTAATAAGATTACCGAAAGGCAATCTTATTAAAACATACCAGATCTTGCGAGGGTGTTTGTGGCAAAACATACCAGATCGAATTCGATCTGGGGAGGTGAAGAATACGACCACCTGCTACAAGTACCTAAATAAAGTATAAAGTGCAAAACATACCAGATCTGTGTGTTGGTTTTTTGTGTGTTAACGGGGGAGGGGGAGGAAAGGGGGAGGGGGAGGAAAGGGGGAGGGGGAGGAAAGGGGGAGGGGGAGCGGCCGCCAACAACAACAACAACAACAACAACAACAACAACAACAACATAACAGTGTTCACTAGCAACCTCAAACAGACACCATG	higher induction	–
Y211: SEQ ID NO: 9; polyA switch construct (nucleic acid) DNA: TCAGATCGCCTGGAGACGCCATCCACGCTGTTTTGACCTCCATAGAAGACACCGGGACCGATCCAGCCTCCCCTCGAAGCTGATCCTGAGAACTTCAGGGTGAGTCTATGGGACCCTTGATGTTTTCTTTCCCCTTCTTTTCTATGGTTAAGTTCATGTCATAGGAAGGGGAGAAGTAACAGGGTACACATATTGACCAAATCAGGGTAATTTTGCATTTGTAATTTTAAAAAATGCTTTCTTCTTTTAATATACTTTTTTGTTTATCTTATTTCTAATACTTTCCCTAATCTCTTTCTTTCAGGGCAATAATGATACAATGTATCATGCCTCTTTGCACCATTCTAAAGAATAACAGTGATAATTTCTGGGTTAAGGCAATAGCAATATTTCTGCATATAAATATTTCTGCATATAAATTGTAACTGATGTAAGAGGTTTCATATTGCTAATAGCAGCTACAATCCAGCTACCATTCTGCTTTTATTTTATGGTTGGGATAAGGCTGGATTATTCTGAGTCCAAGCTAGGCCCTTTTGCTAATCATGTTCATACCTCTTATCTTCCTCCCACAGCTCCTGGGCAACGTGCTGGTCTGTGTGCTGGCCCATCACTTTGGCAAAGAATTGGCTAGCCACACACACAAATCTGGGGAGGTGAAGAATACGACCACCTGCGTTTTATACTTCCACGAGATCTGGGGAGGTGAAGAATACGACCACCTAATAAGATTACCGAAAGGCAATCTTATTAAAACATACCAGATCTTGTGAGGGTGTTTGTGGCAAAACATACCAGATCGAATTCGATCTGGGGAGGTGAAGAATACGACCACCTGCTACAAGTACCTAAATAAAGTATAAAGTGCAAAACATACCAGATCTGTGTGTTGGTTTTTTGTGTGTTAACGGGGGAGGGGGAGGAAAGGGGGAGGGGGAGGAAAGGGGGAGGGGGAGGAAAGGGGGAGGGGGAGCGGCCGCCAACAACAACAACAACAACAACAACAACAACAACAACAACATAACAGTGTTCACTAGCAACCTCAAACAGACACCATG	higher induction	–
Y208: SEQ ID NO: 7; polyA switch construct (nucleic acid) DNA: TGGAGACGCCATCCACGCTGTTTTGACCTCCATAGAAGACACCGGGACCGATCCAGCCTCCCCTCGAAGCTGATCCTGAGAACTTCAGGGTGAGTCTATGGGACCCTTGATGTTTTCTTTCCCCTTCTTTTCTATGGTTAAGTTCATGTCATAGGAAGGGGAGAAGTAACAGGGTACACATATTGACCAAATCAGGGTAATTTTGCATTTGTAATTTTAAAAAATGCTTTCTTCTTTTAATATACTTTTTTGTTTATCTTATTTCTAATACTTTCCCTAATCTCTTTCTTTCAGGGCAATAATGATACAATGTATCATGCCTCTTTGCACCATTCTAAAGAATAACAGTGATAATTTCTGGGTTAAGGCAATAGCAATATTTCTGCATATAAATATTTCTGCATATAAATTGTAACTGATGTAAGAGGTTTCATATTGCTAATAGCAGCTACAATCCAGCTACCATTCTGCTTTTATTTTATGGTTGGGATAAGGCTGGATTATTCTGAGTCCAAGCTAGGCCCTTTTGCTAATCATGTTCATACCTCTTATCTTCCTCCCACAGCTCCTGGGCAACGTGCTGGTCTGTGTGCTGGCCCATCACTTTGGCAAAGAATTGGCTAGCCACACACACAAATCTGGGGAGGTGAAGAATACGACCACCTGCGTTTTATACTTCCGCGAGATCTGGGGAGGTGAAGAATACGACCACCTAATAAGATTACCGAAAGGCAATCTTATTAAAACATACCAGATCTTGCGAGGGTGTTTGTGGCAAAACATACCAGATCGAATTCGATCTGGGGAGGTGAAGAATACGACCACCTGCTACAAGTACCTAATAAAGTATAAAGTGCAAAACATACCAGATCTGTGTGTTGGTTTTTTGTGTGTTAACGGGGGAGGGGGAGGAAAGGGGGAGGGGGAGGAAAGGGGGAGGGGGAGGAAAGGGGGAGGGGGAGCGGCCGCCAACAACAACAACAACAACAACAACAACAACAACAACAACATAACAGTGTTCACTAGCAACCTCAAACAGACACCATG	higher induction	–
Y196CAA-4MAZ: SEQ ID NO: 6; Y-shape polyA switch construct with 4MAZ (nucleic acid) DNA: TCAGATCGCCTGGAGACGCCATCCACGCTGTTTTGACCTCCATAGAAGACACCGGGACCGATCCAGCCTCCCCTCGAAGCTGATCCTGAGAACTTCAGGGTGAGTCTATGGGACCCTTGATGTTTTCTTTCCCCTTCTTTTCTATGGTTAAGTTCATGTCATAGGAAGGGGAGAAGTAACAGGGTACACATATTGACCAAATCAGGGTAATTTTGCATTTGTAATTTTAAAAAATGCTTTCTTCTTTTAATATACTTTTTTGTTTATCTTATTTCTAATACTTTCCCTAATCTCTTTCTTTCAGGGCAATAATGATACAATGTATCATGCCTCTTTGCACCATTCTAAAGAATAACAGTGATAATTTCTGGGTTAAGGCAATAGCAATATTTCTGCATATAAATATTTCTGCATATAAATTGTAACTGATGTAAGAGGTTTCATATTGCTAATAGCAGCTACAATCCAGCTACCATTCTGCTTTTATTTTATGGTTGGGATAAGGCTGGATTATTCTGAGTCCAAGCTAGGCCCTTTTGCTAATCATGTTCATACCTCTTATCTTCCTCCCACAGCTCCTGGGCAACGTGCTGGTCTGTGTGCTGGCCCATCACTTTGGCAAAGAATTGGCTAGCCACACACACAAATCTGGGGAGGTGAAGAATACGACCACCTGCGTTTTATACTTCCACGAGATCTGGGGAGGTGAAGAATACGACCACCTAATAAGATTACCGAAAGGCAATCTTATTAAAACATACCAGATCTTGTGAGGGTGTTTGTGGCAAAACATACCAGATCGAATTCGATCTGGGGAGGTGAAGAATACGACCACCTGCTACAAGTACCTAATAAAGTATAAAGTGCAAAACATACCAGATCTGTGTGTTGGTTTTTTGTGTGTTAACGGGGGAGGGGGAGGAAAGGGGGAGGGGGAGGAAAGGGGGAGGGGGAGGAAAGGGGGAGGGGGAGCGGCCGCCAACAACAACAACAACAACAACAACAACAACAACAACAACATAACAGTGTTCACTAGCAACCTCAAACAGACACCATG	–	far more pronounced
